Residues, ends and D or L forms follow the SMILES beside them. *: point of attachment. Cbz = O=C(OCc1ccccc1)*
Assays:
MCF-7 cells [1] = test: Pilot study of MG-132 on MCF-7 cells exposed to 1117 insulin-cholestosomes; assay type: cell-based, human
Experimental: A pilot study was performed whereby […] to MCF -7 cells that were also exposed to 1117 insulin-cholestosomes.

[2] = rats, chitosan nanoparticles; cited from earlier work
MCF-7 cells [3] = test: FITC cholestosome (myristate/palmitate) uptake in MCF-7 cells, fluorescent imaging; assay type: cell-based, human
Experimental: In this experiment, 22 ug of FITC formulation was placed on MCF-7 cells, Fluorescent imaging was performed over time, with images taken at 2, 4, 8 and 24 hours.

[4] = Temperature stability of insulin; assay type: physicochemical
Experimental: Once there is the addition of the aqueous molecule or construct, the mixture is sonicated until there is a cloudy solution formed, thereby minimizing waste from un-dissolved esters, with sonication providing energy for unilamellar vesicle formation. The aqueous component is also maintained at the target temperature prior to its addition, and as stated previously for most peptides, proteins and genes, the highest temperature that can be tolerated is only about 45-50° C.
On the basis of these finding and considering the stability of the proteins and peptides being formulated, including insulin by way of example, the operating temperature of encapsulation procedures was kept,between 40 and 55 degrees centigrade. […] By way of example, optimal insulin preparation was at 37-55 degrees centigrade.

[5] = assay type: in vivo; settings: rats
Experimental: These experiments were conducted to evaluate the comparative plasma and tissue to plasma ratios of insulin between a cholesterol-encapsulated insulin formulation (cholestosome-insulin) administered by oral gavage and by subcutaneous injection, both compared with the same insulin administered subcutaneously (s.c.) In healthy female Wistar rats.
This study was designed for comparison of insulin bioavailability from the formulations administered, which is defined by the Area under the curve (AUC) calculated as the ratio of Oral to […] over 24 hours following the dosing of the formulation,
Sixteen healthy female Wistar rats ranging from 246.5 to 292.8 g in body weight were distributed into three study groups. Two 6-rat cohorts were dosed with cholestosome insulin oral and SC injection and the remaining 4 rats were given subcutaneous regular insulin as controls. Each rat was dosed with 1.0 ml/animal of a solution identified by Sponsor with cage number and rat number only. Two groups of female Wistar rats were fasted, ranging in duration from 3 hr prior—to 1 hr post-dosing. Rats had free access to water at all times. […] Rats were monitored daily for mortality and morbidity, including signs of hypoglycemia. […]
Results. […] All AUG values were corrected for actual dose given (subtracting residual returned) and expressed as AUG to a dose of 0.25 units, which was approximately 1 unit/kg of body weight. […]

[6] = Insulin solubility and integrity versus pH (HPLC); assay type: physicochemical
Experimental: Many preparations of cholestosome insulin have been made. […] Accordingly, the solubility limits of Insulin were empirically tested at pH 3.5, 6, 7 and 8. Data on the […] of each formulation are plotted by pH of the insulin solution are plotted at two different ionic strengths of PBS buffer in FIG. 9.
The maximum concentration at each tested pH was applied to the following: Stock solutions for each pH and ionic strength combination are prepared. The empirically determined maximum concentration of Human Recombinant Insulin (SAFC Biosciences and. ProSpec) was added to the stock solution. These stock solutions were then readjusted to the desired pH using either 1M HCl or 1M NaOH as needed 5.0 ml of stock solution was heated to 55° C. and used as the aqueous component in preparations.

melanoma = settings: patients with melanoma; cited from earlier work
[7] = Eligen proteinaceous coating and SNAC; cited from earlier work

Experimental for Caco-2 cells: Caco-2 intestinal epithelial cells were gown in Dulbecco's Modified Eagle's Media (DMEM) supplemented with 20% fetal bovine serum (heat inactivated), 1 nM sodium pyruvate, 100 U/ml penicillin, 100 μg/ml streptomycin, 292 μg/ml L-Glutamine and 1× MEM non-essential amino acids (Invitrogen, #11140). Cells were cultured in 75 cm^2 flasks and incubated in a 37° C. and 5% CO2 environment until 80-90% confluent. The Biocoat HTS Caco-2 assay system (Becton Dickson, #0354802) was used for transport studies. Cells were seeded at a density of 3×10^5 cells/well and differentiated into enterocyte-like cells using, the manufacturer's protocol. This system used a special fibrillar collagen insert and a serum free differentiation medium enhanced with butyric acid, hormones, growth factors and metabolites to establish a differentiated monolayer in 3 days instead of the 21 days that is normally required for this process. This involved incubation of the cells with a DMEM based media containing 10% FBS for 48 hours at 37° C., 5% CO2 after seeding to establish a growth phase. The media was then replaced by the defined differentiation media and incubated for another 48 hours. At this point the Caco-2 cells are ready for further studies.
The differentiated Caco-2 cells were used for the production of Chylomicrons using the method of Luchoomun and Hussain-1999 (21). This method uses supplementation with oleic acid (OA) and taurocholate (TC) at a 1.6:1.0 mM ratio to achieve chylomicrons production. The OA:TC solution was made up in the DMEM based cell growth media used in the BIOCOAT differentiation protocol by adding OA to a 10 mM TC solution and incubated at 37° C. until clear. This was then 0.2 u filtered and used immediately for the transport studies. Treatments plus OA:TC were added in a 450 ul volume to the apical side of the well and incubated for 24 hours for transport studies and chylomicrons production. PBS plus lingind glucose was added in a 1ml volume to the basolateral side. […]

For `CC(C)C[C@@H](C=O)NC(=O)[C@H](CC(C)C)NC(=O)[C@H](CC(C)C)NC(=O)OCc1ccccc1` [MG-132] (Cbz-Leu-Leu-Leu-aldehyde), the “effect on exocytosis of insulin-cholestosomes” value (MCF-7 cells [1]) was “caused the likely exocytosis of more intact insulin-cholestosomes”.

In the case of Aspart Insulin, the “oral bioavailability of insulin” value [2] is given as 17%.

In the case of “FITC-insulin: FITC labeled regular insulin purchased commercially, unencapsulated”, the “FITC signal found in the Caco-2 cells” value (Caco-2 cells; Caco-2) was “about 1%” and the “FITC signal remaining on the apical side” value (Caco-2 cells; human, Caco-2, 24 h) was roughly 100%.

With Fluorescein Isothiocyanate [FITC] the “uptake / fluorescence, encapsulated FITC and FITC alone” value (MCF-7 cells [3]) was “uptake of FITC itself into MCF-7 cells”.

In the case of “Insulin: Human Recombinant Insulin made in bacteria”, the “stability across operating temperature range” value ([4]; between 40 and 55 degrees centigrade) is given as “stable”, the “temperature up to which insulin remains stable” value ([4]; under certain conditions) is given as “up to 55 °C” and the “oral bioavailability of insulin” value [2] is given as 17-20%. The “signs of drug toxicity or severe hypoglycemia” value [5] was “No signs of drug toxicity or severe hypoglycemia”, the tolerability ([5]; oral and SC (cholestosome), SC (regular insulin)) was “well tolerated” and the Insulin solubility ([6]; pH 8.0) was “high”. The “integrity of insulin by HPLC analysis” value ([6]; pH (8) environment) was “breaks down the insulin A/B Dimer”.

For “acid protected insulin: insulin protected from acid but not cholestosome encapsulated, Caco-2 control”, the “insulin passing the apical Caco-2 barrier” value (Caco-2 cells; Caco-2) was less than 5%.

For ipilimumab: CTLA-4 antibody, the “overall tumor response (OR) rate” value (melanoma) is given as 11%.

For “semaglutide: a GLP-1 agonist under development by Novo Nordisk”, the oral bioavailability [7] is given as 2.5%.

Source: US20190175515A1, “CHOLESTERYL ESTER VESICLES LOADING PEPTIDES, PROTEINS AND NUCLEIC ACIDS INTO CHYLOMICRONS AND BODY CELLS” (priority 2016, published 2019)
